According to paper PMC8918354:

Biological target: iron superoxide dismutase SodB from Acinetobacter sp. Ver3 (Acinetobacter sp. Ver3)
Experiment: crystal structure; space group C222(1), one molecule per asymmetric unit, dimer formed by crystallographic symmetry; 1.34 Å; crystals grown at 20 °C from 10 mg/ml protein with 1 mM FMN in the mother liquor

stoichiometry N: 2
Substance: iron superoxide dismutase SodB from Acinetobacter sp. Ver3 (enzyme)
